Drawing on the supplement of paper PMC10126150, this text covers switch fluorescence ratio for 78 sequences.

± gives the standard deviation of the averaged measurements.

The test system of this data set is ATP. Kind of data set: switch fluorescence ratio, 500 uM ATP over buffer (Cy3 cluster intensity, sum of 5 cycles each) (fold (ratio)); higher = stronger signal-on switching upon ATP binding; sequences stand for … in TCGTCGGCAGCGTCAGATGTGTATAAGAGACAGTTTTTTTTTTTTTTTTTTTTTTTTT…TC. As to conditions: aptamer strand: ATP DNA aptamer (quencher-CACCTGGGGGAGTATTGCGGAGGAAGG + anchor), 100 nM annealed; ATP concentration: 500 uM. The method, boiled down:
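Between each of five buffer/ATP cycles, the flow-cell was stripped with NaOH and re-annealed. Each cycle imaged Cy3-labelled switching-strand clusters, annealed to 100 nM quencher-labelled ATP aptamer on a modified Illumina MiSeq flow-cell, first in selection buffer and then after 15 min with 500 uM ATP at 22 °C. The fluorescence ratio is summed target-cycle over summed buffer-cycle Cy3 intensity per cluster, averaged per switch-domain sequence, with clusters outside 100-1000 RFU excluded.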
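Further: ATP exposure 15 min at 22 °C before imaging.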

AGAGCGGTTG: the switch fluorescence ratio was 0.969 ± 0.037.

In the case of ATTATAAGTG, the switch fluorescence ratio turned out to be 0.96 ± 0.016.

Take TAGATTAGGA: the switch fluorescence ratio was determined as 1.01 ± 0.036.

On to CGATGCGGTG, for which the switch fluorescence ratio is 1.05 ± 0.033.

On to TCTCGTGGGA, for which the switch fluorescence ratio came out at 1.01 ± 0.03.

For TGAGTATGGT, the switch fluorescence ratio is 1.002 ± 0.0059.

As to TGCAGGGGGG, the switch fluorescence ratio was determined as 1.02 ± 0.039.

With GCGTACAAGA, the switch fluorescence ratio was found to be 1.04 ± 0.061.

Consider TCAGGGGGGG, for which the switch fluorescence ratio was found to be 1.02 ± 0.022.

As for ATATCATGGG, the switch fluorescence ratio worked out at 0.982 ± 0.017.

On to GCATCAGGCG, for which the switch fluorescence ratio was 1.01 ± 0.02.

For the sequence TTTGAGGTAG, the switch fluorescence ratio came to 0.98 ± 0.019.

In the case of AAATCAAGTG, the switch fluorescence ratio amounted to 0.97516 ± 1.6e-05.

As to CCATGGCCAC, the switch fluorescence ratio is 1.0321 ± 0.00059.

For the sequence CGATTTTGAT, the switch fluorescence ratio was found to be 1.01 ± 0.013.

Consider AAGTAGGAAA, for which the switch fluorescence ratio was found to be 0.999 ± 0.013.

As for CGGAATGATA, the switch fluorescence ratio was 1 ± 0.018.

Regarding TAACTATAAG, the switch fluorescence ratio was 1 ± 0.018.

For CGGTTGCTTA, the switch fluorescence ratio was found to be 0.987 ± 0.012.

For the sequence TTTATACCGC, the switch fluorescence ratio stood at 1.13 ± 0.071.

Turning to AAAAAGGATT, the switch fluorescence ratio is 1 ± 0.02.

As to GGTTTCGGGA, the switch fluorescence ratio came out at 1.01 ± 0.021.

Take TAGATGTCAG: the switch fluorescence ratio was 0.986 ± 0.016.

Consider TGAGAGCAGG, for which the switch fluorescence ratio turned out to be 1.08 ± 0.025.

Regarding TAGGGGGGTC, the switch fluorescence ratio was determined as 1 ± 0.066.

For ATGTCAGAGG, the switch fluorescence ratio turned out to be 0.977 ± 0.041.

As for TCACGCCGGG, the switch fluorescence ratio was found to be 1.04 ± 0.019.

In the case of GTTTATCATT, the switch fluorescence ratio worked out at 0.982 ± 0.011.

CAAGTGTGAG: the switch fluorescence ratio was found to be 0.985 ± 0.013.

For the sequence AGCGGCCTG, the switch fluorescence ratio came to 1.01 ± 0.056.

Consider TTTTGGCTTA, for which the switch fluorescence ratio was 0.9945 ± 0.007.

With CTACAGGGGG, the switch fluorescence ratio came out at 1.08 ± 0.018.

In the case of CTCACAGGGG, the switch fluorescence ratio turned out to be 3.62 ± 0.1.

As for TAAATGGAAA, the switch fluorescence ratio worked out at 0.999 ± 0.051.

With AATTGGGCTT, the switch fluorescence ratio is 1.02 ± 0.043.

Turning to GGGTGGGTAG, the switch fluorescence ratio came to 0.955 ± 0.037.

On to AGGAATTGAA, for which the switch fluorescence ratio was 0.982 ± 0.028.

TATATGGGTA: the switch fluorescence ratio came out at 0.982 ± 0.057.

With TTGGGGAATA, the switch fluorescence ratio is 1.05 ± 0.035.

As to AGTTTTCCTG, the switch fluorescence ratio is 0.985 ± 0.015.

Take CATCTGGCTT: the switch fluorescence ratio stood at 1.0536 ± 0.00031.

For TTTTAACAAT, the switch fluorescence ratio came out at 1.021 ± 0.0098.

In the case of GCGGTAGGTT, the switch fluorescence ratio came out at 1.01 ± 0.013.

Regarding ACGGCGTCGC, the switch fluorescence ratio was 1.02 ± 0.026.

Turning to GGTAACGACA, the switch fluorescence ratio was determined as 1.02 ± 0.019.

As to GACTGTAAGC, the switch fluorescence ratio was determined as 1.057 ± 0.0074.

Regarding AGTGTACGGG, the switch fluorescence ratio was found to be 1.083 ± 0.0077.

On to ATTGTAGTCT, for which the switch fluorescence ratio is 1.04 ± 0.06.

As to CTTTTTATGG, the switch fluorescence ratio is 1.03 ± 0.033.

As to TTATTTAATC, the switch fluorescence ratio came out at 1.01 ± 0.038.

Take TCGGCTTAGC: the switch fluorescence ratio is 0.981 ± 0.012.

In the case of CCGCTGGATG, the switch fluorescence ratio turned out to be 1.202 ± 0.011.

As for AAGGCTGATG, the switch fluorescence ratio came out at 0.983 ± 0.017.

Turning to AGGGATTAGT, the switch fluorescence ratio stood at 0.991 ± 0.022.

For TTCATTGTCG, the switch fluorescence ratio stood at 0.929 ± 0.062.

Turning to TTAACGTGTG, the switch fluorescence ratio was determined as 0.975 ± 0.029.

ATATTTAATC: the switch fluorescence ratio amounted to 0.999 ± 0.0079.

In the case of AAAGTCATGG, the switch fluorescence ratio came out at 0.948 ± 0.013.

Turning to CAGTAGTTTT, the switch fluorescence ratio was 1 ± 0.017.

Regarding TGGTTTTACG, the switch fluorescence ratio was found to be 1.019 ± 0.01.

CGCAAAGGGG: the switch fluorescence ratio turned out to be 1.39 ± 0.29.

For the sequence AAATCGTCCA, the switch fluorescence ratio is 0.992 ± 0.057.

As for ACGTGACACC, the switch fluorescence ratio is 1.35 ± 0.063.

On to GCCGTGGGGC, for which the switch fluorescence ratio was found to be 0.997 ± 0.061.

With AGCCAGGATT, the switch fluorescence ratio came to 0.9722 ± 0.0083.

With TACACCTCTA, the switch fluorescence ratio is 1.07 ± 0.028.

Regarding TATTGAGGGT, the switch fluorescence ratio came out at 0.981 ± 0.034.

Consider GCATCTAGAT, for which the switch fluorescence ratio stood at 0.986 ± 0.018.

As for TTGTGCTTAA, the switch fluorescence ratio is 0.989 ± 0.052.

AGAGTCGAGG: the switch fluorescence ratio is 0.968 ± 0.047.

As to GTGGCCATTA, the switch fluorescence ratio was 0.995 ± 0.02.

Regarding CAAGGGTGGT, the switch fluorescence ratio amounted to 1.03 ± 0.023.

Take ATTTTTAGAC: the switch fluorescence ratio was 1.03 ± 0.022.

With AATGGACGTG, the switch fluorescence ratio came out at 1 ± 0.028.

Consider TTCTGGATCC, for which the switch fluorescence ratio came to 1.02 ± 0.043.

Consider GGGAGTGGTG, for which the switch fluorescence ratio turned out to be 1.12 ± 0.17.

On to ATAGCTCTCG, for which the switch fluorescence ratio amounted to 1.01 ± 0.037.

On to GCTGCAGCGC, for which the switch fluorescence ratio turned out to be 1.005 ± 0.0042.
